The values that follow come from article PMC4664390.

The assay concerns the target CmbHLH2 (Chrysanthemum morifolium).

CmbHLH2 (Chrysanthemum morifolium), sequence (main, as listed by the source): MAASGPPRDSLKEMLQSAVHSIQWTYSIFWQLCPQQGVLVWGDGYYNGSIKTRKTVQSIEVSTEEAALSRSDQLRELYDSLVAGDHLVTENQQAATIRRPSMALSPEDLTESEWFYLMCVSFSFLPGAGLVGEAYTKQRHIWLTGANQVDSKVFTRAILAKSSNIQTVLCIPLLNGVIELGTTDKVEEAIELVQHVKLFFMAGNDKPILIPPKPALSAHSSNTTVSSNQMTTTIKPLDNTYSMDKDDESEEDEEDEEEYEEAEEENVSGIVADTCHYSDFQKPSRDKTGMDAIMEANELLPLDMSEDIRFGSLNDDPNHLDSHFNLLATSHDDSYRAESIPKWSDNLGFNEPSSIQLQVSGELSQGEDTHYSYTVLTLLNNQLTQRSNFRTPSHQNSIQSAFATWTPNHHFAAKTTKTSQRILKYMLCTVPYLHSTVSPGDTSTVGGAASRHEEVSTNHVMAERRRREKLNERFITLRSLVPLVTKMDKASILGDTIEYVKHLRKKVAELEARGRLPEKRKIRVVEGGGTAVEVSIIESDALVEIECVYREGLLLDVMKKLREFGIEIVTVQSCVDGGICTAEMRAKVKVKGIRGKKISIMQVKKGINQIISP

CmMYB6 (natural protein) came in with a CmDFR promoter activity in dual luciferase assay (LUC/REN) in tobacco leaves on co-expression of CmbHLH2 with CmMYB6, relative to the empty vector set as one greater than 40 fold.
